# Earlier results as cited in paper PMC6175838.
# pKd: −log10 of the molar value.
# How the values were obtained:
# [1] = molecular target: claudin-3 (Homo sapiens) (UniProt O15551); experiment: given as Ka
# [2] = molecular target: claudin-4 (Homo sapiens) (UniProt O14493); experiment: given as Ka
# Chain of UniProt O14493 (O14493 whole entry): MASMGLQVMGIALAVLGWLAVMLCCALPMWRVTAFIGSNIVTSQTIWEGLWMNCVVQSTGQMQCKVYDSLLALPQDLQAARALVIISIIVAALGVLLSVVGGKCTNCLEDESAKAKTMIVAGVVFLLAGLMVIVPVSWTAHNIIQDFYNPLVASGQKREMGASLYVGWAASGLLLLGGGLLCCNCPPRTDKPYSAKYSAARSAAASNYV
# Chain of UniProt O15551 (O15551 whole entry): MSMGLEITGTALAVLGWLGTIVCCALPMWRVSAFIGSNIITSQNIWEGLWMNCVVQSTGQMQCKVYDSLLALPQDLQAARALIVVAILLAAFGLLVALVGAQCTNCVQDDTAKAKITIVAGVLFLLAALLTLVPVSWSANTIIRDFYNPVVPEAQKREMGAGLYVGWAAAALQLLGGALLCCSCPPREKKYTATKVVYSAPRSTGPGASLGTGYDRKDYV
substance,measurement,setting,value
C-CPE C-terminal domain (from UniProt P01558),pKd,[1],8.00
same,pKd,[2],8.00
